From US20240368288A1 (HEMOGENYX PHARMACEUTICALS, published 2024) come the findings set out here.

Where “and” joins values, the source holds several entries; their conditions need not be identical. Identical values can stand only once.

Test [1] has as its target T1, human FLT3 (Fms Related Receptor Tyrosine Kinase 3) expressed on cells (human, UniProt P36888 27-993).
T1 construct: whole, on cells; Same entry used for all cell lines; also called FLK2
T1 sequence (looked up): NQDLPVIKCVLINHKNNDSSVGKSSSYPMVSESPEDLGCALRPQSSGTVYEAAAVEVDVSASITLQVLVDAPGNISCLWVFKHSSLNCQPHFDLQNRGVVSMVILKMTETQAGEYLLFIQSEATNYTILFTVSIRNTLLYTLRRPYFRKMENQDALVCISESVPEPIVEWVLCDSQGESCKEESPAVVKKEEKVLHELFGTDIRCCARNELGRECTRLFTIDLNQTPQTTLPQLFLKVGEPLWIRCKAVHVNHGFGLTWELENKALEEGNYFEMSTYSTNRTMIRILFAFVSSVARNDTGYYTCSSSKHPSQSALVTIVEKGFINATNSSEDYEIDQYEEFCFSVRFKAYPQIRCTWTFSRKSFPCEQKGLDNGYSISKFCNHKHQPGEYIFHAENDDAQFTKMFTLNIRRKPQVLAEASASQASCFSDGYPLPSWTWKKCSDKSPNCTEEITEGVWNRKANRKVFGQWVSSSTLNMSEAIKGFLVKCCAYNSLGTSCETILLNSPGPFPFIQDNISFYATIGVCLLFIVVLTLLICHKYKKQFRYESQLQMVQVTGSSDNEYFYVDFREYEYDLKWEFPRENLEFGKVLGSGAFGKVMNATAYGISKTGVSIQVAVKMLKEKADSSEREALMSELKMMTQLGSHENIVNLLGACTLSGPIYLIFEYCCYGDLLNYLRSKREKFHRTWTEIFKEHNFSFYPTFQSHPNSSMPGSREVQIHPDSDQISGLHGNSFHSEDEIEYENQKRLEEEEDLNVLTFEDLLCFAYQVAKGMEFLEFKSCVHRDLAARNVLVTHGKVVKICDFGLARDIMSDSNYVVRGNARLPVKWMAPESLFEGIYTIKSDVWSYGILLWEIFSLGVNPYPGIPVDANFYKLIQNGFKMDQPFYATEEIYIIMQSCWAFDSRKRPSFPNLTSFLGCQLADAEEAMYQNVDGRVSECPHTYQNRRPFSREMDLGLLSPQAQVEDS
The experiment in a line: flow cytometry on FLT3+ OCI-AML cells. The text has this: (§1) Cells were washed five times with flow buffer and stained with anti-human IgG lambda antibody conjugated to FITC (Southern Biotech 2070-02). Cells were stained with 7-AAD (7-AAD Viability Staining Solution, Biolegend 420404) followed by flow cytometry analysis. […] Binding of bispecific antibody to cells should directly correlate with FLT3 expression.

For test [2], the target named is T1, human FLT3 (Fms Related Receptor …). Kind of test: flow cytometry on FLT3+ HL-60 cells.
Excerpt: as §1

Test [3] addresses T2, human CD3 on the surface of T cells / Jurkat cells (human, UniProt P07766 23-207; P09693 23-182; P04234 22-171).
T2 construct: whole, on cells
The experiment in a line: flow cytometry on CD3+ human T cells. The text has this:
(§2) Cells were washed five times with flow buffer and stained with anti-human IgG lambda antibody conjugated to FITC (Southern Biotech 2070-02). Cells were stained with 7-AAD (7-AAD Viability Staining Solution, Biolegend 420404) followed by flow cytometry analysis.

Test [4] addresses T1, human FLT3 (Fms Related Receptor …). Kind of test: flow cytometry on FLT3+ MOLM-13 cells.
Excerpt: as §1

For test [5] the target is unchanged. The experiment in a line: cell-based or functional assay.
Test [6] has as its target T3, Recombinant Human CD3 epsilon Fc Chimera Protein (R&D, no. 9850-CD-050) (human, UniProt P07766 23-126).
T3 construct: Bought reagent; Fc part of the bought chimera not given
Kind of test: ELISA, plate coated with recombinant human CD3 epsilon Fc chimera. The protocol:
The plate was washed with wash buffer (PBS (Caisson Labs, no. PBL06)+0.05% Tween20 (ThermoFisher, no. 28320)) The plate was blocked with blocking buffer (PBS (Caisson Labs, no. PBL06)+1% (w/v) BSA (Rockland, no. BSA-50)+0.05% Tween20 (ThermoFisher, no 28320)) for two hours at room temperature (RT). Plate was washed twice with wash buffer. […] Plate was washed 4× with wash buffer. Plate was incubated with 100 μL per well of 1:200 goat anti-human lambda-HRP secondary antibody (SouthernBiotech, no. 2070-05) for one hour at RT. Plate was washed 4× with wash buffer. Plate was incubated with 100 μL per well of TMB Substrate (ThermoFisher Cat #34029) for 20 minutes protected from light. Stop solution (2N H₂SO₄) was added to each well. Absorbance of wells was recorded at 450 nm on an Envision plate reader (PerkinElmer). […] Variable slope (four parameters) curve was fit to the data and EC50 was used to compare binding affinities.

In test [7] the target is T1, human FLT3 (Fms Related Receptor …). The experiment in a line: flow cytometry on FLT3+ REH cells.
Excerpt: as §2

Test [8] shares this target. The experiment in a line: flow cytometry on FLT3+ NOMO-1 cells.
Excerpt: as §1

Test [9] shares this target. The experiment in a line: flow cytometry on FLT3+ THP-1 cells.
Excerpt: as §1

The target of test [10] is T2, human CD3 on the surface of T cells / …. The experiment in a line: flow cytometry on CD3+ primary T cells.
Excerpt: as §2

For test [11] the target is unchanged. Kind of test: flow cytometry on CD3+ Jurkat cells.
Excerpt: as §2

Test [12] deals with T1, human FLT3 (Fms Related Receptor …). The experiment in a line: flow cytometry on FLT3+ MV4-11 cells.
Excerpt: as §1

T2 sequence (P07766 23-207, chain 1 of 3): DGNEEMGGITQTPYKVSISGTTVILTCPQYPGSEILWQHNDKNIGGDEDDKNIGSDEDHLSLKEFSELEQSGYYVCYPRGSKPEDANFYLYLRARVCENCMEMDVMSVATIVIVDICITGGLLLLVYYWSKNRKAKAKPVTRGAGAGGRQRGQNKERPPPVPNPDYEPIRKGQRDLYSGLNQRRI
T2 sequence (P09693 23-182, chain 2 of 3): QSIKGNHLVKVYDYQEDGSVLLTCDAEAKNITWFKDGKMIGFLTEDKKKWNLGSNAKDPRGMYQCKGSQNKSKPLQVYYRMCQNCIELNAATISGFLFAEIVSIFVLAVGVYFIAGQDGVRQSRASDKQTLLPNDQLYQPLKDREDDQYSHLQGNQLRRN
T2 sequence (P04234 22-171, chain 3 of 3): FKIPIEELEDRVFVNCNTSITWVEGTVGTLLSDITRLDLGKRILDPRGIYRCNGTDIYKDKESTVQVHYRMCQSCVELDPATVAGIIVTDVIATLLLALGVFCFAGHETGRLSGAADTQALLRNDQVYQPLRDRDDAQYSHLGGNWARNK
T3 sequence (P07766 23-126, change not shown): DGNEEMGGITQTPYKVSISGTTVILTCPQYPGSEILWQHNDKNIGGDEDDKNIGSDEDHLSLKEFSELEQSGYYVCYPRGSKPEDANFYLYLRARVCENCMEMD

B1: CD3xFLT3 bispecific antibody 118BA #3 (bispecific antibody, human IgG1, lambda)
heavy: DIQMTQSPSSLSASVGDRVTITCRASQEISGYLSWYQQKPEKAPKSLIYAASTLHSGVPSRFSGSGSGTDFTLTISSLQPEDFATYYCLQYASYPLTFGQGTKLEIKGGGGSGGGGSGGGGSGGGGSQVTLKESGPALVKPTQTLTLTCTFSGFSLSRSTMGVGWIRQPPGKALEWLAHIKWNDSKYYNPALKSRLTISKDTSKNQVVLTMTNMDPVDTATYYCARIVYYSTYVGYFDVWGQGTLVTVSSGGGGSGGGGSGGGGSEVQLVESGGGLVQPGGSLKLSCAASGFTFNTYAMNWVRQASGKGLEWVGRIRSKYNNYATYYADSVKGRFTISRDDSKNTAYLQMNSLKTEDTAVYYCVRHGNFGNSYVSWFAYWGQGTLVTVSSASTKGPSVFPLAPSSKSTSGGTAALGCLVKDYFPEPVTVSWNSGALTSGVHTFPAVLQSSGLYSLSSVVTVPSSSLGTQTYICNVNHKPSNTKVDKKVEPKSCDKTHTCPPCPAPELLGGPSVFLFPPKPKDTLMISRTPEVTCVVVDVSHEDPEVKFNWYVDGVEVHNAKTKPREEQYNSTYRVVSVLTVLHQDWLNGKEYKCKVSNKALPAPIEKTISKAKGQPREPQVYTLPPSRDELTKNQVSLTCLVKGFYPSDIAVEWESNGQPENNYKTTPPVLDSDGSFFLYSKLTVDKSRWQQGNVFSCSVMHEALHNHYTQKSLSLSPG
light: QAVVTQEPSFSVSPGGTVTLTCGSSTGAVTTSNYANWVQQTPGQAFRGLIGGTNKRSSGVPDRFSGSLLGDKAALTITGAQADDESDYYCALWYSNLWVFGGGTKLTVLGGQPKAAPSVTLFPPSSEELQANKATLVCLISDFYPGAVTVAWKADSSPVKAGVETTTPSKQSNNKYAASSYLSLTPEQWKSHRSYSCQVTHEGSTVEKTVAPTECS
notes: also called #3 WT
As for B1, the EC50 in test [1] was 1.86 nM; in test [2], 1.02 nM; in test [3], 13.8 nM; in [4], 0.4 nM; in test [6], 0.011 µg/mL and 0.06 nM; in [7], 0.5 nM and 0.87 nM and 0.6 nM. Moreover, the EC50 in test [8] was found to be 6.75 nM; in [9], 5.74 nM; in [10], 14.2 nM; in [11] it was 4.18 nM; in [12], 6.33 nM. Besides, the “EC50 of cytotoxicity against HL-60” value in test [5] is 0.014 nM. Also, in test [5], the “EC50 of cytotoxicity against MOLM-13” value is 0.0157 nM. Further, the “EC50 of cytotoxicity against MV4-11” value in [5] amounted to 0.022 nM. The “EC50 of cytotoxicity against NOMO-1” value in [5] is 0.003 nM. In addition, the “EC50 of cytotoxicity against OCI-AML” value in [5] was 0.002 nM. Further, in [5], the “EC50 of cytotoxicity against REH” value is 0.01 nM. Moreover, in [5], the “EC50 of cytotoxicity against REH cells” value is 0.01 nM and 0.006 nM. The “EC50 of cytotoxicity against THP-1” value in [5] came to 0.00025 nM.
